Sequences and labels used below:
T1: EsCas13d, nuclease-dead (Eubacterium siraeum, UniProt B0MS50, R295A;H300A;R849A;H854A)
T1 sequence: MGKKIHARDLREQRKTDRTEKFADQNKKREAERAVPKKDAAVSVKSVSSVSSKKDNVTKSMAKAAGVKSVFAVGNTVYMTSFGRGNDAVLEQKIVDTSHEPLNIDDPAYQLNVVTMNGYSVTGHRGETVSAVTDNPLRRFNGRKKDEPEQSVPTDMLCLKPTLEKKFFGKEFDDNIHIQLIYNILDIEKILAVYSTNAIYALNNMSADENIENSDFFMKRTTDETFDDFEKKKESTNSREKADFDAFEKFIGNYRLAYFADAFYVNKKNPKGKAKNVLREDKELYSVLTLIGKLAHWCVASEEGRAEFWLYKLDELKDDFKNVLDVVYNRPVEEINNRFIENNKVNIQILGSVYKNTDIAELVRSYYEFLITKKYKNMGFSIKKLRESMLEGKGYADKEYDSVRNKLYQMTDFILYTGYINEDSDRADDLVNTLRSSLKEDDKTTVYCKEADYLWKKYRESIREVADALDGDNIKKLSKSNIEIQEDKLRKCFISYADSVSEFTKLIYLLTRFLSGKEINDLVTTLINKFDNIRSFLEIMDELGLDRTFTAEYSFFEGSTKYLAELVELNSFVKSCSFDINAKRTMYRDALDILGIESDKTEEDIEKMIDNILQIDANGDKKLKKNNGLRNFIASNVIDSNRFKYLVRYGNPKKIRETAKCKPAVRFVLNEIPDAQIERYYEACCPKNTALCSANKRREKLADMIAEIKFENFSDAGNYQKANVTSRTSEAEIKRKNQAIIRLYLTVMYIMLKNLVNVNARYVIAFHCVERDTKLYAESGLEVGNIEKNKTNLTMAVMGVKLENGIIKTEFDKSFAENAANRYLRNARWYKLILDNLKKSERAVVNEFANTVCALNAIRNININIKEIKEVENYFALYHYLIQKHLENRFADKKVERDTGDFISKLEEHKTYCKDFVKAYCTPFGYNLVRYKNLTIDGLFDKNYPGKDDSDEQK

B1: target 1 insA 3' of 17,insG 3' of 8 (mixed)
RNA 1: CACCCGUGCAAAAAUGCAGGGGUCUAAAACUGAGCGGAUAACCUCUCUAUGG
RNA 2: GGGAAUGGAUCCACAUCUACGAAUUCGUACCAUAGAAGAGGUUAUGCCGCUCACCGAGAUCGGAAGAGCACACGU
B2: target 1 insU 3' of 9,insA 3' of 7 (mixed)
RNA 1: B1 RNA 1
RNA 2: B1 RNA 2 with A37G, G38A, A39G, G41U, U43A, A44U, G46C, C47A
B3: target 1 insC 3' of 19,insU 3' of 6 (mixed)
RNA 1: B1 RNA 1
RNA 2: B1 RNA 2 with A34C, G35A, A36G, G46C, C48U
B4: target 1 insC 3' of 13,insU 3' of 12 (mixed)
RNA 1: B1 RNA 1
RNA 2: B1 RNA 2 with A37G, G38A, A39G, G40C, A44U, U45A, G46U
B5: target 1 insA 3' of 22,insU 3' of 6 (mixed)
RNA 1: B1 RNA 1
RNA 2: B1 RNA 2 with C31A, A32C, U33A, A34U, G35A, A36G, G46C, C48U
B6: target 1 insU 3' of 22,insC 3' of 3 (mixed)
RNA 1: B1 RNA 1
RNA 2: GGGAAUGGAUCCACAUCUACGAAUUCGUACUCAUAGAGAGGUUAUCCGCUCCACCGAGAUCGGAAGAGCACACGU
B7: target 1 C4G,G12C (mixed)
RNA 1: B1 RNA 1
RNA 2: GGGAAUGGAUCCACAUCUACGAAUUCGUACCAUAGAGAGCUUAUCCGGUCACCGAGAUCGGAAGAGCACACGU
B8: target 1 U8C,U10C (mixed)
RNA 1: B1 RNA 1
RNA 2: B7 RNA 2 with C40G, U42C, U44C, G48C
B9: target 1 insG 3' of 16,insA 3' of 6 (mixed)
RNA 1: B1 RNA 1
RNA 2: B1 RNA 2 with A37G, G46C, C48A
B10: target 1 insC 3' of 17,insU 3' of 1 (mixed)
RNA 1: B1 RNA 1
RNA 2: B1 RNA 2 with A36C, G46C, C48G, G49C, C50U, U51C, C52A, A53U
B11: target 1 insG 3' of 14,insA 3' of 12 (mixed)
RNA 1: B1 RNA 1
RNA 2: B1 RNA 2 with A37G, G38A, A39G, U42A, A44U, U45A, G46U
B12: target 1 insA 3' of 3,insA 3' of 3 (mixed)
RNA 1: B1 RNA 1
RNA 2: GGGAAUGGAUCCACAUCUACGAAUUCGUACCAUAGAGAGGUUAUCCGCUAACACCGAGAUCGGAAGAGCACACGU
B13: target 1 C2G,U19A (mixed)
RNA 1: B1 RNA 1
RNA 2: B7 RNA 2 with U33A, C40G, G48C, C50G
B14: target 1 insG 3' of 21,insA 3' of 19 (mixed)
RNA 1: B1 RNA 1
RNA 2: GGGAAUGGAUCCACAUCUACGAAUUCGUACCGAUAAGAGAGGUUAUCCGCUCACCGAGAUCGGAAGAGCACACGU
B15: target 1 insG 3' of 14,insU 3' of 2 (mixed)
RNA 1: B1 RNA 1
RNA 2: B1 RNA 2 with A37G, G38A, A39G, G46C, C48G, G49C, C50U, U51C, C52U
B16: target 1 insA 3' of 10,insA 3' of 7 (mixed)
RNA 1: B1 RNA 1
RNA 2: B12 RNA 2 with U44A, C45U, G47A, U49G, A50C, A51U
B17: target 1 C4A,C22G (mixed)
RNA 1: B1 RNA 1
RNA 2: B7 RNA 2 with C30G, C40G, G48A
B18: target 1 insC 3' of 19,insA 3' of 15 (mixed)
RNA 1: B1 RNA 1
RNA 2: B14 RNA 2 with G32A, A33U, U34C, A36G, G37A, A38G, G39A
B19: target 1 G12A,A14C (mixed)
RNA 1: B1 RNA 1
RNA 2: B7 RNA 2 with A38C, C40A, G48C
B20: target 1 C2A,G5U (mixed)
RNA 1: B1 RNA 1
RNA 2: B7 RNA 2 with C40G, G47U, G48C, C50A
B21: target 1 insC 3' of 12,insG 3' of 11 (mixed)
RNA 1: B1 RNA 1
RNA 2: B1 RNA 2 with A37G, G38A, A39G, G41C, U43G, A44U, U45A, G46U
B22: target 1 insG 3' of 16,insG 3' of 2 (mixed)
RNA 1: B1 RNA 1
RNA 2: B1 RNA 2 with A37G, G46C, C48G, G49C, C50U, U51C, C52G
B23: target 1 insC 3' of 20,insG 3' of 19 (mixed)
RNA 1: B1 RNA 1
RNA 2: B14 RNA 2 with G32A, A33C, A35G
B24: target 1 G13U,G15U (mixed)
RNA 1: B1 RNA 1
RNA 2: B7 RNA 2 with G37U, G39U, C40G, G48C
B25: target 1 insU 3' of 18,insC 3' of 14 (mixed)
RNA 1: B1 RNA 1
RNA 2: B1 RNA 2 with G35U, A36G, G40C, U42G, A44U, U45A, G46U
B26: target 1 insA 3' of 22,insU 3' of 5 (mixed)
RNA 1: B1 RNA 1
RNA 2: B6 RNA 2 with U31A, C49U, U50C, C51U
B27: target 1 U10A,C22U (mixed)
RNA 1: B1 RNA 1
RNA 2: B7 RNA 2 with C30U, C40G, U42A, G48C
B28: target 1 G12U,U19C (mixed)
RNA 1: B1 RNA 1
RNA 2: B7 RNA 2 with U33C, C40U, G48C

Positions count from the first letter of the chain named. Names may count otherwise.

In general, Kd refers to the equilibrium constant for the complex coming apart. A lower Kd goes with higher affinity.

In the data set the target is T1, EsCas13d, nuclease-dead. Put plainly: crRNA (strand 1, pre-loaded); Mg2+; 40 mM Tris-HCl pH 7.5, 150 mM NaCl, 6 mM MgCl2, 1 mM DTT, 0.1% Tween-20, 0.2 mg/ml BSA; 25 C; 10 min per concentration, then washed. As to conditions: tags: His6-TwinStrep-SUMO cleaved; N-terminal SNAP kept (SNAP-Surface 488); label: 3' end held by stalled T7 RNA polymerase.
B1 displayed a Kd of 14.7 ± 1.7 nM. Then B2, with 9.5 ± 0.4 nM; and B3, with 46.6 ± 2.9 nM. B4 returned a Kd of 11.1 ± 0.4 nM. For the molecule B5, the Kd was 13.6 ± 0.6 nM. As for B6, the Kd is 28 ± 6 nM. Compared with the last molecule, the Kd is about 2.1-fold higher.

Molecule B7 registered a Kd of 18 ± 4 nM.

On to B8, for which binding was put at a Kd of 22.4 ± 1.3 nM. B9 yielded a Kd of 15 ± 0.6 nM. Then B10, with 66 ± 21 nM; and B11, with 23.7 ± 1.7 nM. Under B12 stands 7.5 ± 0.6 nM; under B13, 24.9 ± 2.7 nM; under B14, 64 ± 15 nM. For B15, the Kd is 12.5 ± 0.8 nM.

The molecule B16 registered a Kd of 10.4 ± 0.5 nM.

B17 yielded a Kd of 25 ± 8 nM. B18 returned a Kd of 36 ± 4 nM. On to B19, for which the Kd came out at 30.5 ± 2.6 nM. The molecule B20 returned a Kd of 24 ± 1.9 nM. For B21, the Kd was found to be 11.7 ± 0.8 nM. B22 came in with a Kd of 14.4 ± 2.5 nM. B23 had a Kd of 47 ± 7 nM. Then B24, with 55 ± 19 nM; and B25, with 73 ± 23 nM; and B26, with 28 ± 7 nM. In the case of B27, binding was put at a Kd of 20.8 ± 2.8 nM. B28 yielded a Kd of 42 ± 6 nM.
